{
  "source": "the RNAGym collection of RNA variant scans (doi:10.7554/elife.90254)",
  "parents": {"B1": {"name": "LINE1-mini (parent)", "chain": "GGCAGAGCUCAACACAGCGUGGCAAAGUGGCUGUGGCUAGACUGCC"}},
  "data": [
    {"variants_of": "B1", "assay": "self-cleavage, relative activity (ratio to wild type); higher = more cleavage; in vitro, sequencing; the parent is a self-cleaving ribozyme", "values": [
      {"variant": "G22A C45U", "self-cleavage": 1.44},
      {"variant": "G2A A41U", "self-cleavage": 0.66},
      {"variant": "C3G C18U", "self-cleavage": 0.54},
      {"variant": "G7A U20C", "self-cleavage": 0.07},
      {"variant": "C10U G44C", "self-cleavage": 0.16},
      {"variant": "U34C C42A", "self-cleavage": 0.09},
      {"variant": "C10U U32G", "self-cleavage": 0.12},
      {"variant": "A4C G30A", "self-cleavage": 0.24},
      {"variant": "C3U C18A", "self-cleavage": 0.23},
      {"variant": "C8U C31U", "self-cleavage": 0.14},
      {"variant": "A11U A12C", "self-cleavage": 0.04},
      {"variant": "C15U U43A", "self-cleavage": 0.14},
      {"variant": "G7C A41U", "self-cleavage": 0.21},
      {"variant": "G21U G33A", "self-cleavage": 0.26},
      {"variant": "U28A G33C", "self-cleavage": 0.03},
      {"variant": "G19C G44U", "self-cleavage": 0.15},
      {"variant": "A14U A24C", "self-cleavage": 0.15},
      {"variant": "A24G C45U", "self-cleavage": 1.23},
      {"variant": "G33U G35U", "self-cleavage": 0.11},
      {"variant": "A6U G44U", "self-cleavage": 0.54},
      {"variant": "G2A C37A", "self-cleavage": 0.35},
      {"variant": "U9A A25C", "self-cleavage": 0.07},
      {"variant": "G1C G29U", "self-cleavage": 0.14},
      {"variant": "C18U U28G", "self-cleavage": 0.43},
      {"variant": "G17U C45G", "self-cleavage": 0.05},
      {"variant": "G33C", "self-cleavage": 0.07},
      {"variant": "U34C A39C", "self-cleavage": 0.09},
      {"variant": "G22A G40C", "self-cleavage": 0.09},
      {"variant": "C18G A41G", "self-cleavage": 0.08},
      {"variant": "U32G A41U", "self-cleavage": 0.07},
      {"variant": "G21C C37U", "self-cleavage": 0.01},
      {"variant": "C8A U43A", "self-cleavage": 0.14},
      {"variant": "C23U C46G", "self-cleavage": 1.58},
      {"variant": "A16G U38C", "self-cleavage": 0.18},
      {"variant": "C18G A26G", "self-cleavage": 0.22},
      {"variant": "G35C A39C", "self-cleavage": 0.13},
      {"variant": "C10G G19A", "self-cleavage": 0.1},
      {"variant": "C18U G21A", "self-cleavage": 2.7},
      {"variant": "A12U G17A", "self-cleavage": 0.05},
      {"variant": "G33C C42A", "self-cleavage": 0.06},
      {"variant": "U9C G35C", "self-cleavage": 0.04},
      {"variant": "A26G U28A", "self-cleavage": 1.25},
      {"variant": "U28G U32G", "self-cleavage": 0.24},
      {"variant": "A6C G30A", "self-cleavage": 1.01},
      {"variant": "A24C U32G", "self-cleavage": 0.13},
      {"variant": "A6U G27A", "self-cleavage": 0.42},
      {"variant": "G5U G7A", "self-cleavage": 0.43},
      {"variant": "G27C C42U", "self-cleavage": 0.11},
      {"variant": "G7C C13A", "self-cleavage": 0.11},
      {"variant": "G7U U38A", "self-cleavage": 0.04},
      {"variant": "G17U U34C", "self-cleavage": 0.05},
      {"variant": "A26G U28G", "self-cleavage": 0.37},
      {"variant": "A6G G33U", "self-cleavage": 0.07},
      {"variant": "C8G G19U", "self-cleavage": 0.04},
      {"variant": "C8U G35C", "self-cleavage": 0.09},
      {"variant": "G7U G40A", "self-cleavage": 0.16},
      {"variant": "U34C C42G", "self-cleavage": 0.05},
      {"variant": "C18U U34G", "self-cleavage": 0.03},
      {"variant": "C15A G22A", "self-cleavage": 0.28},
      {"variant": "C15U C31A", "self-cleavage": 0.06},
      {"variant": "U34A G36U", "self-cleavage": 0.04},
      {"variant": "G30C G36A", "self-cleavage": 0.1},
      {"variant": "U20A A39U", "self-cleavage": 0.62},
      {"variant": "C3G C31G", "self-cleavage": 0.07},
      {"variant": "C15G A25G", "self-cleavage": 0.06},
      {"variant": "U34A C45U", "self-cleavage": 0.11},
      {"variant": "G1C C13A", "self-cleavage": 0.05},
      {"variant": "G7C C18A", "self-cleavage": 0.12},
      {"variant": "G7C U43G", "self-cleavage": 0.05},
      {"variant": "A4C C8A", "self-cleavage": 0.32},
      {"variant": "G2A G44C", "self-cleavage": 0.56},
      {"variant": "A4C A14U", "self-cleavage": 0.22},
      {"variant": "C15G G44U", "self-cleavage": 0.03},
      {"variant": "U9C U34G", "self-cleavage": 0.03},
      {"variant": "C8G A26C", "self-cleavage": 0.14},
      {"variant": "A11C A24C", "self-cleavage": 0.04},
      {"variant": "U9G G35U", "self-cleavage": 0.07},
      {"variant": "A4C A11G", "self-cleavage": 0.04},
      {"variant": "A26G G33U", "self-cleavage": 0.07},
      {"variant": "G2C U9A", "self-cleavage": 0.16},
      {"variant": "U20C C45A", "self-cleavage": 0.34},
      {"variant": "C8G U38A", "self-cleavage": 0.06},
      {"variant": "A16U A25G", "self-cleavage": 0.07},
      {"variant": "A14C A24U", "self-cleavage": 0.07},
      {"variant": "U9A G30U", "self-cleavage": 0.08},
      {"variant": "G30A G44A", "self-cleavage": 0.64},
      {"variant": "G33A G40C", "self-cleavage": 0.09},
      {"variant": "A4U A16C", "self-cleavage": 0.19},
      {"variant": "G19U C46A", "self-cleavage": 1.08},
      {"variant": "A12U A39G", "self-cleavage": 0.08},
      {"variant": "C18G U20A", "self-cleavage": 0.41},
      {"variant": "U32A C45G", "self-cleavage": 0.07},
      {"variant": "A11G G29C", "self-cleavage": 0.3},
      {"variant": "G17A C42G", "self-cleavage": 0.12},
      {"variant": "A11G C15A", "self-cleavage": 0.02},
      {"variant": "C23U G40A", "self-cleavage": 0.12},
      {"variant": "G27U G36U", "self-cleavage": 0.04},
      {"variant": "A12U A26C", "self-cleavage": 0.16},
      {"variant": "U9C C45A", "self-cleavage": 0.05},
      {"variant": "U9C U34A", "self-cleavage": 0.04},
      {"variant": "A12C C13G", "self-cleavage": 0.04},
      {"variant": "U32G G35C", "self-cleavage": 0.1},
      {"variant": "A41C C46U", "self-cleavage": 0.04},
      {"variant": "A25U A41U", "self-cleavage": 0.6},
      {"variant": "A6G C45A", "self-cleavage": 0.15},
      {"variant": "U20A A25G", "self-cleavage": 0.26},
      {"variant": "A41C G44U", "self-cleavage": 0.11},
      {"variant": "G2C A41G", "self-cleavage": 0.17},
      {"variant": "A6U U20C", "self-cleavage": 0.3},
      {"variant": "A25G G35C", "self-cleavage": 0.04},
      {"variant": "A26C C45A", "self-cleavage": 0.8},
      {"variant": "A24G C42U", "self-cleavage": 0.41},
      {"variant": "G5C A41U", "self-cleavage": 0.09},
      {"variant": "A16U G40A", "self-cleavage": 0.04},
      {"variant": "G19U G36U", "self-cleavage": 0.04},
      {"variant": "C23U A26G", "self-cleavage": 0.88},
      {"variant": "G2A G7C", "self-cleavage": 0.39},
      {"variant": "A4G G19A", "self-cleavage": 0.95},
      {"variant": "U20G G21U", "self-cleavage": 0.97},
      {"variant": "U20A A39C", "self-cleavage": 0.08},
      {"variant": "C8A C31U", "self-cleavage": 0.21},
      {"variant": "C31U U32A", "self-cleavage": 0.09},
      {"variant": "G1U G27A", "self-cleavage": 0.36},
      {"variant": "G1U A41C", "self-cleavage": 0.05},
      {"variant": "A25U C45A", "self-cleavage": 0.41},
      {"variant": "C37G G40U", "self-cleavage": 0.08},
      {"variant": "G40C C42G", "self-cleavage": 0.1},
      {"variant": "C37G A39C", "self-cleavage": 0.06},
      {"variant": "U32G U38C", "self-cleavage": 0.12},
      {"variant": "A39G C42G", "self-cleavage": 0.03},
      {"variant": "G21C G27U", "self-cleavage": 0.84},
      {"variant": "G17U C42G", "self-cleavage": 0.06},
      {"variant": "G7U C8U", "self-cleavage": 0.34},
      {"variant": "U34C C46U", "self-cleavage": 0.12},
      {"variant": "U32G C42A", "self-cleavage": 0.04},
      {"variant": "G19A G44C", "self-cleavage": 0.48},
      {"variant": "C13U U34C", "self-cleavage": 0.14},
      {"variant": "U28G G29A", "self-cleavage": 0.34},
      {"variant": "A12G G33U", "self-cleavage": 0.12},
      {"variant": "C23G U43A", "self-cleavage": 0.08},
      {"variant": "G29U G33U", "self-cleavage": 0.12},
      {"variant": "C15A A25C", "self-cleavage": 0.04},
      {"variant": "A14G U43G", "self-cleavage": 0.11},
      {"variant": "C10U A16G", "self-cleavage": 0.19},
      {"variant": "C3G C18A", "self-cleavage": 0.17},
      {"variant": "A12G G17C", "self-cleavage": 0.05},
      {"variant": "G1U A6C", "self-cleavage": 0.51},
      {"variant": "C23G A25U", "self-cleavage": 0.72},
      {"variant": "G17C A24C", "self-cleavage": 0.19},
      {"variant": "C23U A26C", "self-cleavage": 0.64},
      {"variant": "C18A G19C", "self-cleavage": 1.27},
      {"variant": "U38G C46G", "self-cleavage": 0.02},
      {"variant": "C10U U43C", "self-cleavage": 0.03},
      {"variant": "A16U A41G", "self-cleavage": 0.07},
      {"variant": "G7A A12C", "self-cleavage": 0.02},
      {"variant": "G35A C46A", "self-cleavage": 0.11},
      {"variant": "G7U G40C", "self-cleavage": 0.12},
      {"variant": "C10G A25G", "self-cleavage": 0.08},
      {"variant": "U38A G44A", "self-cleavage": 0.28},
      {"variant": "C18G G30U", "self-cleavage": 0.62},
      {"variant": "C23A G30C", "self-cleavage": 2.68},
      {"variant": "U28C C46G", "self-cleavage": 1.68},
      {"variant": "G21C G36A", "self-cleavage": 0.1},
      {"variant": "C8A U38A", "self-cleavage": 0.26},
      {"variant": "A11G A41U", "self-cleavage": 0.02},
      {"variant": "A16U G33C", "self-cleavage": 0.07},
      {"variant": "A14G C46U", "self-cleavage": 0.26}
    ]}
  ]
}
